Target: pex14_human PEX14 (UniProt O75381)
Sequence of UniProt O75381 (O75381 whole entry): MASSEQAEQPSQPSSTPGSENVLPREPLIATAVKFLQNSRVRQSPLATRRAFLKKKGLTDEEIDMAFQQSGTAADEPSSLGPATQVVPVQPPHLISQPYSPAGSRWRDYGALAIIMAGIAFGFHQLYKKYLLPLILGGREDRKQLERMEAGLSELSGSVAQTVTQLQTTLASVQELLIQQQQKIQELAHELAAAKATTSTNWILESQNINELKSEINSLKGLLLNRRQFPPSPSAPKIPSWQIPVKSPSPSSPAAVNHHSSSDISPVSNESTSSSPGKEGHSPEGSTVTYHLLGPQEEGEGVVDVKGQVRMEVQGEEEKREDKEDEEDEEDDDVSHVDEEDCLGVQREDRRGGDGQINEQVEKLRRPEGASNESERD

effect of a mutation on the interaction: disrupting interaction
Substance: Peroxisomal targeting signal 1 receptor (Homo sapiens) (from UniProt P50542) E121D

— IntAct's records for PubMed 19197237
